The labels stand for the following.
B1: Pf1 PHD1/MBD (residues 48–241) (domain or fragment, human, UniProt Q96QT6 48-241, looked up)
chain: RRSGRATNHDSCDSCKEGGDLLCCDHCPAAFHLQCCNPPLSEEMLPPGEWMCHRCTVRRKKREQKKELGHVNGLVDKSGKRTTSPSSDTDLLDRSASKTELKAIAHARILERRASRPGTPTSSASTETPTSEQNDVDEDIIDVDEEPVAAEPDYVQPQLRRPFELLIAAAMERNPTQFQLPNELTCTTALPGSS
B2: MRG domain of MRG15 (residues 155–323) (domain or fragment)
chain: not shown

Read-outs that look alike come from different tables or passages of the source.

Common to all, as to assay: NMR titration
The target of assay [1] is T1, full-length MRG15 (residues 1–323) (human, UniProt Q9UBU8-2 1-323).
In assay [2] the target is T1, full-length MRG15 (residues 1–323). This is another data set of the same source.
In assay [3] the target is B1.

The values below come from PMC3428507 (Journal of molecular biology, 2012).

For B1, the binding result in assay [1] is recorded as “binds”. On to DYVQPQLRRPFELLIAAAMERNPTQFQLPNELTCTTALPGSS (domain or fragment, human, UniProt Q96QT6 200-241, looked up) [MRG-binding domain of Pf1 (residues 200–241)], for which, in assay [2], the binding result is “binds”. Take B2: the binding result in assay [3] is reported as “binds”.
